This is an account of results in US20090180995A1, “NOVEL ANTICOAGULANT POLYPEPTIDES AND COMPLEX” (National University of Singapore, priority 2005, published 2009).

For assay [1], the system named is plasma. Nature of the assay: Stypven time. It counts as biochemical. As to conditions: human plasma, RVV. How it is done:
(§1) Anticoagulant activity—The anticoagulant activities of H. haemachatus venom and its fractions was determined by four coagulation tests using a BBL fibrometer: • 1. Recalcification time: The recalcification times were determined according to the method of Langdell et al. (25). 50 mM Tris-HCl buffer (pH 7.4) (100 μl), plasma (100 μl) and various concentrations of venom or its fraction (50 μl) were preincubated for 2 min at 37° C. Clotting was initiated by the addition of 50 μl of 50 mM CaCl2. • 2. Prothrombin time: The prothrombin times were measured according to the method of Quick (26). […] Clotting was initiated by the addition of thromboplastin with calcium reagent (150 μl) which can be purchased from Sigma (St. Louis, Mo., USA). • For studying the role of electrostatic interactions, the anticoagulant activity of a specific concentration of hemextin A (4.4 μM), hemextin B (4.4 μM) and hemextin AB complex (0.11 μM) was monitored in 50 mM Tris-HCl (pH 7.4) containing various concentrations of NaCl (35 mM to 150 mM). • For studying the role of hydrophobic interactions, the anticoagulant activity of a specific concentration of hemextin A (4.4 μM), hemextin B (4.4 μM) and hemextin AB complex (0.11 μM) was monitored in 50 mM Tris-HCl (pH 7.4) containing various concentrations of glycerol (125 mM to 250 mM). • 2. […] Thrombin time: Thrombin time was determined according to the method of Jim (28). […]

Assay [2] deals with plasma. The assay can be described thus: Thrombin time. It counts as biochemical. The conditions noted are these: human plasma, thrombin reagent. As for the experimental part: as §1
In a further assay the target is T1, FVIIa-sTF (Homo sapiens, UniProt P08709).
T1 construct: made in house; host or cells: Saccharomyces cerevisiae (sTF); human plasma (FVIIa)
Nature of the assay: FVIIa-sTF amidolytic activity. The conditions noted are these: FVIIa-sTF (30 nM)/S-2288. It counts as biochemical. How it is done:
Serine protease specificity—The selectivity profile of anticoagulant proteins and their complex was examined against 12 serine proteases—procoagulant serine proteases (FIXa, FXa, FXIa, FXIIa, plasma kallikrein and thrombin), anticoagulant serine protease (APC), fibrinolytic serine proteases (urokinase, t-PA and plasmin) and classical serine proteases (trypsin and chymotrypsin). Various concentrations of purified hemextin A/hemextin B and reconstituted hemextin AB complex were preincubated with each of the enzymes (Table 1) for a period of five minutes at a temperature of 37° C., followed by the addition of appropriate chromogenic substrate.
For studies with FXIa, kallikrein and urokinase, the appropriate substrates were determined prior to their screening against the inhibitors. For FXIa, the Vmax for the amidolytic activity corresponding to the chromogenic substrates S-2266, S-2302 and S-2366 was determined. S-2302 was the substrate with the highest Vmax and thus was used in the screening studies. Similar studies with kallikrein and urokinase were carried out with substrates S-2266, S-2302 and S-2288 for kallikrein and S-2444 and S-2484 for urokinase. […] The kinetic rate of substrate hydrolysis (mOD/min) was measured over 5 min.

Assay [3] relates to hemextin A-hemextin B interaction. The assay can be described thus: ITC, hemextin A-hemextin B interaction. It counts as binding, Hemachatus haemachatus. (ITC needs no label: the signal is the heat of the interaction.)

T1 sequence (P08709 61-212 limits assumed): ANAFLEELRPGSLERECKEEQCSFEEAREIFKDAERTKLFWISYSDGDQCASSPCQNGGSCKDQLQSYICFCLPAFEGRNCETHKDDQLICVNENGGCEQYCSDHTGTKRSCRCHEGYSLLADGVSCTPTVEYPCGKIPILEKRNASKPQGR
T1 sequence (P08709 213-466 limits assumed): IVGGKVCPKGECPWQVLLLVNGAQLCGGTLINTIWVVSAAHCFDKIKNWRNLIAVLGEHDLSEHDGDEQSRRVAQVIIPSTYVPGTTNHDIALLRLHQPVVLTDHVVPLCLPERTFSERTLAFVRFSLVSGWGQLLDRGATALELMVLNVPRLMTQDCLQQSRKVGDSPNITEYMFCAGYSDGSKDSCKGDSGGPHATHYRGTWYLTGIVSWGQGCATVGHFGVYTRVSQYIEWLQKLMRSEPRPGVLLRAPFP
T1 sequence (P13726 33-251 partner limits assumed): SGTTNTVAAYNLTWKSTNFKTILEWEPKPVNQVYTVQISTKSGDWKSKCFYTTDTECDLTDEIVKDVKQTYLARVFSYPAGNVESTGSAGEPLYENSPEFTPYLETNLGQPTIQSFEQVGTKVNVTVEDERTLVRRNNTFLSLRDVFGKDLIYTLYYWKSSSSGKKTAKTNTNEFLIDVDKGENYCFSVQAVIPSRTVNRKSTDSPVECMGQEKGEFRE

B1: hemextin B (protein)
chain: LKCKNKVVPFLKCKNKVVPFLCYKMTLKKVPKIPIKRGCTDACPKSSLLVNVMCCKTDKCN
Regarding B1, the “clotting time, Stypven time” value in the assay with plasma [1] is recorded as “did not prolong clotting times”. In the assay on plasma [2], the “clotting time, thrombin time” value was “did not prolong clotting times”.

B2: hemextin A (protein)
chain: LKCKNKLVPFLSKTCPEGKNLCYKMTMLKMPKIPIKRGCTDACPKSSLLVKVVCCNKDKCN
Consider B2, for which, in the assay with FVIIa-sTF, the “inhibition of FVIIa-sTF amidolytic activity” value is “potent inhibitory activity”. The “clotting time, Stypven time” value in the assay on plasma [1] was “did not prolong”. In the assay with plasma [2], the “clotting time, thrombin time” value is reported as “did not prolong”.

B3: hemextin AB complex: synergistic 1:1 tetrameric complex of hemextin A and hemextin B, reconstituted from equimolar proteins (protein)
chain 1: LKCKNKLVPFLSKTCPEGKNLCYKMTMLKMPKIPIKRGCTDACPKSSLLVKVVCCNKDKCN
chain 2: LKCKNKVVPFLKCKNKVVPFLCYKMTLKKVPKIPIKRGCTDACPKSSLLVNVMCCKTDKCN
With B3, the “inhibition of FVIIa-sTF amidolytic activity” value with FVIIa-sTF was “potent inhibitory activity”. For the same molecule, the Ka in assay [3] (10 ° C., 50 mM Tris (pH 7.4)) is 640000 M⁻¹; in assay [3] (25 ° C., 50 mM Tris (pH 7.4)), 2.07e+06 M⁻¹; in assay [3] (37 ° C., 50 mM Tris (pH 7.4)) it was 2.23e+06 M⁻¹; in assay [3] (37 ° C., 50 mM Tris (pH 7.4) + 35 mM NaCl), 630000 M⁻¹; in assay [3] (37 ° C., 50 mM Tris (pH 7.4) + 75 mM NaCl), 330000 M⁻¹; in assay [3] (37 ° C., 50 mM Tris (pH 7.4) + 100 mM NaCl), 20000 M⁻¹. Moreover, the Ka in assay [3] (37 ° C., 50 mM Tris (pH 7.4) + 125 mM glycerol) was 320000 M⁻¹; in assay [3] (37 ° C., 50 mM Tris (pH 7.4) + 150 mM NaCl), 2000 M⁻¹; in assay [3] (37 ° C., 50 mM Tris (pH 7.4) + 175 mM glycerol), 200000 M⁻¹; in assay [3] (37 ° C., 50 mM Tris (pH 7.4) + 250 mM glycerol) it was 50000 M⁻¹; in assay [3] (45 ° C., 50 mM Tris (pH 7.4)) it was 1.97e+06 M⁻¹. Further, in assay [3] (ITC), the “binding constant (Ka), hemextin AB complex formation” value was found to be 2.23e+06 M⁻¹.
